This assay deals with Elk-1 ETS domain (Elk-ets), recombinant. Nature of the assay: SEC. In general terms: Size exclusion chromatography separates by hydrodynamic size, large species first.

From paper PMC3159454 come the findings set out here.

As to “Elk-1 ETS domain (Elk-ets), recombinant (domain or fragment)”, the stoichiometry N (in general, a count of units in the complex or per binding partner) was 2.
